# Reference: patent US20250352661A1 (MYTHIC THERAPEUTICS, published 2025)
# Where a chain is given by its changes, count along the chain named. Names may count otherwise.
# B1: MYT9521 (antibody, V domains shown)
# VH: EVQLVESGGGLVQPGGSLRLSCTASGFSFSSSHWICWVRQAPGKGLEWVGCIYAGSIGSTYYASWAKGRFTISRDTSKNTVYLQMNSLRAEDTAVYYCARAPNDIYNYYFNLWGQGTLVTVSS
# VL: EIVMTQSPSTLSASVGDRVIITCQASENIYNYLAWYQQKPGKAPKLLIYYASDLASGVPSRFSGSGSGAEFTLTISSLQPDDFATYYCQSGYVSKSSTFGQGTKLTVL
# B2: MYT8391 (antibody, V domains shown)
# VH: EVQLVESGGGLVQPGGSLRLSCTASGLDFRRTNYICWVRQAPGKGLEWVGCIYIADVVHYYASWAKGRFTFSRDTSKNTVYLQMNSLRAEDTAVYYCARGADGGFHYGMDLWGQGTLVTVSS
# VL: EIVMTQSPSTLSASVGDRVIITCQASQSIGNYLSWYQQKPGKAPKRLIYSASTLPSGVPSRFSGSGSGAEFTLTISSLQPDDFATYYCQNNYWLAGYGHPFGQGTKLTVL
# B3: MYT8416 (antibody, V domains shown)
# VH: B2 VH with H106V
# VL: B2 VL with W93H
# B4: MYT9496 (antibody, V domains shown)
# VH: B1 VH with P102D
# VL: B1 VL with D53T
# notes: also called hu29F1 VH P102D
# B5: MYT9498 (antibody, V domains shown)
# VH: B1 VH with D104A
# VL: B1 VL with D53T
# notes: also called hu29F1 VH D104A
# B6: MYT9505 (antibody, V domains shown)
# VH: B1 VH with N111D
# VL: B1 VL with D53T
# notes: also called hu29F1 VH N111D
# B7: MYT9506 (antibody, V domains shown)
# VH: B1 VH with L112D
# VL: B1 VL with D53T
# notes: also called hu29F1 VH L112D
# B8: MYT9716 (antibody, V domains shown)
# VH: B1 VH with P102E
# VL: B1 VL with D53T
# notes: also called hu29F1 VH P102E
# B9: MYT9722 (antibody, V domains shown)
# VH: B1 VH with Y108E
# VL: B1 VL with D53T
# notes: also called hu29F1 VH Y108E
# B10: MYT9724 (antibody, V domains shown)
# VH: B1 VH with F110E
# VL: B1 VL with D53T
# notes: also called hu29F1 VH F110E
# B11: MYT9725 (antibody, V domains shown)
# VH: B1 VH with N111E
# VL: B1 VL with D53T
# notes: also called hu29F1 VH N111E
# B12: MYT9726 (antibody, V domains shown)
# VH: B1 VH with L112E
# VL: B1 VL with D53T
# notes: also called hu29F1 VH L112E
# B13: MYT5438, samrotamab ADC, Hinge Conjugated, DAR 2.0 (antibody, V domains shown)
# VH: EVQLVQSGAEVKKPGASVKVSCKASGYKFSSYWIEWVKQAPGQGLEWIGEILPGSDTTNYNEKFKDRATFTSDTSINTAYMELSRLRSDDTAVYYCARDRGNYRAWFGYWGQGTLVTVSS
# VL: DIQMTQSPSSLSASVGDRVTITCRASQDISNYLNWYQQKPGGAVKFLIYYTSRLHSGVPSRFSGSGSGTDYTLTISSLQPEDFATYFCQQGEALPWTFGGGTKVEIK
# modifications: ADC: payload conjugated at the hinge, DAR 2.0 (payload not given) ; ADC: payload conjugated at hinge cysteines, DAR 2.0. The letters do not carry it.
# notes: also called Sam; ADC, Hinge (DAR 2.0); Samrotamab WT
# B14: MYT2737 (antibody, V domains shown)
# VH: B13 VH
# VL: B13 VL with Y50H
# notes: also called Sam; LC His Variant; samrotamab LC His Var
# B15: MYT3315 (antibody, V domains shown)
# VH: EVQLVESGGGLVQPGGSLRLSCAVSGFSLTSYGVHWVRQATGKGLEWLGVIWAGGSTNYNSALMSRLTISKENAKSSVYLQMNSLRAGDTAMYYCATHMITEDYYGMDYWGQGTTVTVSS
# VL: DIVMTQSPDSLAVSLGERATINCKSSQSLLNSRTRKNYLAWYQQKPGQSPKLLIYWASTRHSGVPDRFSGSGSGTDFTLTISSLQAEDVAVYYCKQSYNLPTFGGGTKVEIK
# notes: also called hu139.10 LC His Variant; hu139.10 LC His Var
# What was measured:
# [1] = molecular target: T1, LRRC15 on the surface of LRRC15+ cells (SAOS-2, U87MG) (UniProt Q8TF66 22-581, limits assumed); test: cell-based or functional assay
# T1 sequence (looked up): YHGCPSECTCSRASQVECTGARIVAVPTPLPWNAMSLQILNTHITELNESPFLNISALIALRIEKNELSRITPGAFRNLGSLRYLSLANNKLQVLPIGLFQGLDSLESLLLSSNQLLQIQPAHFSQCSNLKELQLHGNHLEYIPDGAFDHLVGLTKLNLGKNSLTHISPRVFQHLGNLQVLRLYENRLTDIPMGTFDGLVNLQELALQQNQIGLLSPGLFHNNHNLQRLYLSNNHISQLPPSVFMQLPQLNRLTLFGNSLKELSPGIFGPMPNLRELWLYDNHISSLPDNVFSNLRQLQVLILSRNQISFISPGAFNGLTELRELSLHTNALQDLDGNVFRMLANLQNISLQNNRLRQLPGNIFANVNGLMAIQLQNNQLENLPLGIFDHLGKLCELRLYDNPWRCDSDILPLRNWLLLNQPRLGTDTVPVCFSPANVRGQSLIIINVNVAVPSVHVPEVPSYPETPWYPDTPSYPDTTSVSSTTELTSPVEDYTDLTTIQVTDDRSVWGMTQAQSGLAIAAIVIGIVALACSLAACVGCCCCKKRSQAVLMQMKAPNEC
# [2] = molecular target: T1, LRRC15 on the surface of LRRC15+ cells …; test: cell-based or functional assay; remark: listed apart in the source
# [3] = molecular target: T1, LRRC15 on the surface of LRRC15+ cells …; test: cell-based or functional assay; remark: listed apart in the source
# [4] = molecular target: T2, Human LRRC15 Protein, His Tag (Acro Biosystems) (human, UniProt Q8TF66 22-538, limits assumed); test: BLI; dissociation pH 7.4 black, pH 5.4 grey [2/2); D00020 FIG. 4B (2/2]
# T2 construct: not shown: His tag
# T2 sequence (looked up): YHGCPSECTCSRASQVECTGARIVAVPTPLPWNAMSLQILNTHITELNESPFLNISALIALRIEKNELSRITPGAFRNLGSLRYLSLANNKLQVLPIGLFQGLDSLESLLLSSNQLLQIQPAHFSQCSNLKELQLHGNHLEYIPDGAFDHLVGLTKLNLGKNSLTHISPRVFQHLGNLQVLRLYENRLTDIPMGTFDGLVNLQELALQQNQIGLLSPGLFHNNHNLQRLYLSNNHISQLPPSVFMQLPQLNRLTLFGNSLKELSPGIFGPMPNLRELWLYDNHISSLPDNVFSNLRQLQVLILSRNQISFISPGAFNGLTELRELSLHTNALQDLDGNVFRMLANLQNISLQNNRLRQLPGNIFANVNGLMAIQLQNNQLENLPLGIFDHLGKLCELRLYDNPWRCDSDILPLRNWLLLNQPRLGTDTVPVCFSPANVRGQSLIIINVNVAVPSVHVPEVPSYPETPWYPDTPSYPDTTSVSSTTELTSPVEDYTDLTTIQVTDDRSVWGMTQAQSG
# Protocol: Desirable mutations were transferred to a humanized framework (humanized, MYT 8387-8411). After allowing for four days of protein expression, cell culture supernatants were collected, quantified by SDS-PAGE analysis, and the pH dependence of the variant was evaluated using biolayer interferometry (BLI) on an Octet RED 96e instrument. Briefly, cell culture supernatants were diluted based on qualitative expression level of the variant determined by visual examination of SDS-PAGE gels, 5 μL of cell culture supernatant was diluted into 195 μL of 1×PBST, pH 7.4 for high expressors, 25 μL of cell culture supernatant was diluted into 175 μL of 1×PBST, pH 7.4 for medium expressors and 100 μL of cell culture supernatant was diluted into 100 μL of 1×PBST, pH 7.4 for low expressors for loading onto the sensor tips. The resulting diluted supernatants were then captured on an anti-human Fc sensor (Forte Bio). A baseline was established using 1×PBST (50 mM Potassium Phosphate Buffer+150 mM NaCl+0.05% Tween 20) pH 7.4, and the […] was associated with 50 nM of LRRC15 (Human LRRC15 Protein, His Tag, Acro Biosystems) in 1×PBST pH 7.4 for 120 sec to generate an association curve. In the dissociation phase, the antibody-antigen complex on the sensor was exposed to 1×PBST pH 7.4 or pH 5.4, for 300 sec. Association and dissociation phase curves were examined for the starting ABPC antibody (with no substitutions) and each corresponding antibody variant at pH 5.4 and pH 7.4 to inform on two criteria: a) enhanced dissociation (i.e., higher koff values) at pH 5.4 due to histidine substitution compared to the starting ABPC, (with no substitutions), and b) reduced dissociation at pH 7.4 (i.e., lower koff values) compared to pH 5.4 in the antibody variant itself and with the starting ABPC (with no substitutions).
# The methods of Examples 9-10 were applied to RabMAb clone 29F1 (rabbit VH SEQ ID NO: 572 and VL SEQ ID NO: 578; and humanized VH SEQ ID NO: 576 and VL SEQ ID NO: 582).
# [5] = molecular target: T2, Human LRRC15 Protein, His Tag (Acro …); test: BLI; dissociation pH 7.4 black, pH 5.4 grey [2/2); D00026 FIG. 6B (2/2]
# [6] = molecular target: T3, LRRC15 on LRRC15 positive cell lines SAOS2 and G292 (UniProt Q8TF66 22-581, limits assumed); test: cell binding on SAOS2 cells (LRRC15 positive), pH 7.4; parameters: unit not given here
# T3 construct: whole, on cells
# T3 sequence (looked up): T1 sequence (looked up)
# [7] = molecular target: T3, LRRC15 on LRRC15 positive cell lines …; test: cell binding on SAOS2 cells (LRRC15 positive), pH 6.4
# [8] = molecular target: T3, LRRC15 on LRRC15 positive cell lines …; test: cell binding on G292 cells (LRRC15 positive), pH 7.4; parameters: unit not given here
# [9] = molecular target: T3, LRRC15 on LRRC15 positive cell lines …; test: cell binding on G292 cells (LRRC15 positive), pH 6.4
binder,measurement,setting,value
B1,"Internalization in SAOS-2 cells (10 nM, 24 hours), FOB = fold over background (IgG control)",[1],3.02 fold over background (IgG control)
same,"Internalization in SAOS-2 cells (10 nM, 24 hours), FOS = fold over samrotamab",[1],1.24 fold over samrotamab
same,"Internalization in U87MG cells (10 nM, 24 hours), FOB = fold over background (IgG control)",[2],3.42 fold over background (IgG control)
same,"Internalization in U87MG cells (10 nM, 24 hours), FOS = fold over samrotamab",[2],2.82 fold over samrotamab
same,"Cytotoxicity against SAOS-2 cells, Fold over MYT5438 (mAb complexed with MMAF-conjugated secondary antibody, CTG assay)",[3],1.49 fold over MYT5438
B2,"Internalization in SAOS-2 cells (10 nM, 24 hours), FOB = fold over background (IgG control)",[1],2.94 fold over background (IgG control)
same,"Internalization in SAOS-2 cells (10 nM, 24 hours), FOS = fold over samrotamab",[1],1.2 fold over samrotamab
same,"Internalization in U87MG cells (10 nM, 24 hours), FOB = fold over background (IgG control)",[2],3.13 fold over background (IgG control)
same,"Internalization in U87MG cells (10 nM, 24 hours), FOS = fold over samrotamab",[2],2.49 fold over samrotamab
same,"Cytotoxicity against SAOS-2 cells, Fold over MYT5438 (mAb complexed with MMAF-conjugated secondary antibody, CTG assay)",[3],1.14 fold over MYT5438
B3,"Internalization in SAOS-2 cells (10 nM, 24 hours), FOB = fold over background (IgG control)",[1],2.71 fold over background (IgG control)
same,"Internalization in SAOS-2 cells (10 nM, 24 hours), FOS = fold over samrotamab",[1],1.05 fold over samrotamab
same,"Internalization in U87MG cells (10 nM, 24 hours), FOB = fold over background (IgG control)",[2],3.05 fold over background (IgG control)
same,"Internalization in U87MG cells (10 nM, 24 hours), FOS = fold over samrotamab",[2],2.39 fold over samrotamab
same,"Cytotoxicity against SAOS-2 cells, Fold over MYT5438 (mAb complexed with MMAF-conjugated secondary antibody, CTG assay)",[3],1.13 fold over MYT5438
B4,binding result,[4],binds
B5,binding result,[4],binds
B6,binding result,[4],binds
B7,binding result,[4],binds
B8,binding result,[5],binds
B9,binding result,[5],binds
B10,binding result,[5],binds
B11,binding result,[5],binds
B12,binding result,[5],binds
B13,Affinity,[6],0.31
same,Affinity,[7],0.336
same,Affinity,[8],0.165
same,Affinity,[9],0.187
B14,Affinity,[6],0.84
same,Affinity,[7],0.92
same,Affinity,[8],0.528
same,Affinity,[9],0.676
B15,Affinity,[6],0.296
same,Affinity,[7],0.398
same,Affinity,[8],0.155
same,Affinity,[9],0.251
